According to patent publication US20150086555A1:

B1: TCN-527 (5086_C06) (antibody, V domains shown)
VH: QVQLQESGPGLVKPSETLSLNCAVSGGSISNYYWSWIRQPPGKGLEWIGYISYNGRPKYNPSLTSRVTISVDTSKDQFSLELRSVTAADTALYYCARETRFGELLSPYDAFEIWGQGTMVTVSS
VL: DIQMTQSPSSLSASVGDRVTMTCRASQNIRSYLNWYQQRPGTAPKLLIYAASTLHSGVPSRFSGGGSGTDFTLTINNLQPEDFASYYCQQSYDNPQTFGQGTKVEIK
B2: TCN-522 (3212_I12) (antibody, V domains shown)
VH: QVQLQQWGAGLLKPSETLSLTCTVSGGSLTDYSWNWIRQPPGKGLEWIGDTLHNGYTNYNPSLRGRVSISIDTSKNQVSLRLTSVTAADTALYYCARGSGGYGGFDYFGKLRTWDFWGQGTLVTVSS
VL: DIQLTQSPSSLSASVGDRVTITCRASQGIRNDLGWYQQKPGNAPKRLIFGASSLQSGVPSRFSGSGSGTEFTLTISSLQPEDFATYYCLQHNSYPYTFGQGTKLEIK
B3: TCN-528 (5087_P17) (antibody, V domains shown)
VH: QVQLVQSGSEVKKPGASVKVSCKASGYTFTNYDINWIRQAPGQGLEWMGWINPNSGTTGSAQRFQGRVTITVDTSITTVYMELSSLRSDDTAIYYCARGRELLRLQHFLTDSQSERRDCFDPWGQGTLVTVSS
VL: DIQMTQSPSSLSASVGDRVTITCRANQDIGIYLNWYQQNPGKVPKLLLHGASSLQGGVPSRFSASGSGTDFTLTIHSLQPEDLATYYCQQSRRLPYTFGQGTRVELK

What was measured:
Conditions in all cases: remark: other sources report otherwise
[1] = biological target: recombinant homotrimeric HA A/Solomon Islands/3/06 H1N1 (Influenza A virus A/Solomon Islands/3/2006(H1N1)); assay: protein microarray, purified IgG, trimeric HA
[2] = biological target: recombinant homotrimeric HA A/Netherlands/219/03 H7N7 (Influenza A virus A/Netherlands/219/03(H7N7)); assay: protein microarray, purified IgG, trimeric HA
[3] = biological target: recombinant homotrimeric HA A/Anhui/1/05 H5N1 (Influenza A virus A/Anhui/1/2005(H5N1)); assay: protein microarray, purified IgG, trimeric HA
[4] = biological target: recombinant homotrimeric HA A/chicken/Vietnam/NCVD-016/08 H5N1 (Influenza A virus A/chicken/Vietnam/NCVD-016/2008(H5N1)); assay: protein microarray, purified IgG, trimeric HA
[5] = biological target: recombinant homotrimeric HA A/northern shoveler/California/HKWF115/07 H6N4 (Influenza A virus A/northern shoveler/California/HKWF115/2007(H6N1)); assay: protein microarray, purified IgG, trimeric HA
[6] = biological target: recombinant homotrimeric HA A/Egypt/3300-NAMRU3/08 H5N1 (Influenza A virus A/Egypt/3300-NAMRU3/2008(H5N1)); assay: protein microarray, purified IgG, trimeric HA
[7] = biological target: recombinant homotrimeric HA A/Wisconsin/67/05 H3N2 (Influenza A virus A/Wisconsin/67/2005(H3N2)); assay: protein microarray, purified IgG, trimeric HA
[8] = biological target: recombinant homotrimeric HA A/South Carolina/1/18 H1N1 (Influenza A virus A/South Carolina/1/18 (H1N1)); assay: protein microarray, purified IgG, trimeric HA
[9] = biological target: recombinant homotrimeric HA A/Indonesia/5/05 H5N1 (Influenza A virus A/Indonesia/5/2005(H5N1)); assay: protein microarray, purified IgG, trimeric HA
[10] = biological target: recombinant homotrimeric HA A/Japan/305/57 H2N2 (Influenza A virus A/Japan/305/1957(H2N2)); assay: protein microarray, purified IgG, trimeric HA
[11] = biological target: recombinant homotrimeric HA A/Vietnam/1203/04 H5N1 (Influenza A virus A/VietNam/1203/2004(H5N1)); assay: protein microarray, purified IgG, trimeric HA
[12] = biological target: recombinant homotrimeric HA A/California/4/09 H1N1 (Influenza A virus A/California/04/2009(H1N1)); assay: protein microarray, purified IgG, trimeric HA
[13] = biological target: recombinant homotrimeric HA A/Hong Kong/2108/03 H9N2 (Influenza A virus A/HK/2108/2003(H9N2)); assay: protein microarray, purified IgG, trimeric HA
[14] = biological target: recombinant homotrimeric HA A/Hong Kong/156/97 H5N1 (Influenza A virus A/Hong Kong/156/97 (H5N1)); assay: protein microarray, purified IgG, trimeric HA
[15] = biological target: recombinant soluble homotrimeric HA of A/duck/Yangzhou/02/05 (H8N4) (Influenza A virus A/duck/Yangzhou/02/2005(H8N4)); assay: HA microarray, BCC supernatant
[16] = biological target: recombinant soluble homotrimeric HA of A/Wisconsin/67/05 (H3N2) (Influenza A virus A/Wisconsin/67/2005(H3N2)); assay: HA microarray, BCC supernatant
[17] = biological target: recombinant soluble homotrimeric HA of A/swine/Ontario/01911-2/99 (H4N6) (Influenza A virus A/Swine/Ontario/01911-2/99 (H4N6)); assay: HA microarray, BCC supernatant
[18] = biological target: recombinant soluble homotrimeric HA of A/Netherlands/219/03 (H7N7) (Influenza A virus A/Netherlands/219/03(H7N7)); assay: HA microarray, BCC supernatant
[19] = biological target: recombinant soluble homotrimeric HA of A/California/4/09 (H1N1) (Influenza A virus A/California/04/2009(H1N1)); assay: HA microarray, BCC supernatant
[20] = biological target: recombinant soluble homotrimeric HA of A/Hong Kong/2108/03 (H9N2) (Influenza A virus A/HK/2108/2003(H9N2)); assay: HA microarray, BCC supernatant
[21] = biological target: recombinant soluble homotrimeric HA of A/Indonesia/5/05 (H5N1) (Influenza A virus A/Indonesia/5/2005(H5N1)); assay: HA microarray, BCC supernatant
[22] = biological target: recombinant soluble homotrimeric HA of A/Japan/305/57 (H2N2) (Influenza A virus A/Japan/305/1957(H2N2)); assay: HA microarray, BCC supernatant
[23] = biological target: recombinant soluble homotrimeric HA of A/northern shoveler/California/HKWF115/07 (H6) (Influenza A virus A/northern shoveler/California/HKWF115/2007(H6N1)); assay: HA microarray, BCC supernatant
[24] = biological target: recombinant soluble homotrimeric HA of A/chicken/Vietnam/NCVD-016/08 (H5N1) (Influenza A virus A/chicken/Vietnam/NCVD-016/2008(H5N1)); assay: HA microarray, BCC supernatant
[25] = biological target: recombinant soluble homotrimeric HA of A/Solomon Islands/3/06 (H1N1) (Influenza A virus A/Solomon Islands/3/2006(H1N1)); assay: HA microarray, BCC supernatant
[26] = biological target: recombinant soluble homotrimeric HA of A/Anhui/1/05 (H5N1) (Influenza A virus A/Anhui/1/2005(H5N1)); assay: HA microarray, BCC supernatant
[27] = biological target: recombinant soluble homotrimeric HA of A/Vietnam/1203/04 (H5N1) (Influenza A virus A/VietNam/1203/2004(H5N1)); assay: HA microarray, BCC supernatant
[28] = biological target: recombinant homotrimeric HA A/Hong Kong/1073/99 H9N2 (Influenza A virus A/Hong Kong/1073/99 (H9N2)); assay: protein microarray, purified IgG, trimeric HA

Binder	Trimeric HA Binding: RLU [1] [RLU]	Trimeric HA Binding: RLU [2] [RLU]	Trimeric HA Binding: RLU [3] [RLU]	Trimeric HA Binding: RLU [4] [RLU]	Trimeric HA Binding: RLU [5] [RLU]	Trimeric HA Binding: RLU [6] [RLU]	Trimeric HA Binding: RLU [7] [RLU]	Trimeric HA Binding: RLU [8] [RLU]	Trimeric HA Binding: RLU [9] [RLU]	Trimeric HA Binding: RLU [10] [RLU]	Trimeric HA Binding: RLU [11] [RLU]	Trimeric HA Binding: RLU [12] [RLU]	Trimeric HA Binding: RLU [14] [RLU]	Trimeric HA Binding: RLU [15] [RLU]	Trimeric HA Binding: RLU [19] [RLU]	Trimeric HA Binding: RLU [20] [RLU]	Trimeric HA Binding: RLU [21] [RLU]	Trimeric HA Binding: RLU [22] [RLU]	Trimeric HA Binding: RLU [25] [RLU]	Trimeric HA Binding: RLU [27] [RLU]	further results
B1	22900	15200	24700	25200	13200	23900	600	314	29600	27000	19800	18600	28600	28800	28000	16000	23800	19300	16500	21300	Trimeric HA Binding: RLU [13]: 18700 RLU; Trimeric HA Binding: RLU [16]: 5720 RLU; Trimeric HA Binding: RLU [17]: 7690 RLU; Trimeric HA Binding: RLU [18]: 8890 RLU; Trimeric HA Binding: RLU [23]: 30300 RLU; Trimeric HA Binding: RLU [24]: 27000 RLU; Trimeric HA Binding: RLU [26]: 21400 RLU
B2	19100		5260	1960	3180	11300	108	4500	12500	9740	11300	13900	14800	502	5020	639	67	989	38900	145	Trimeric HA Binding: RLU [28]: 5050 RLU
B3	25400	16700	28800	22700	18000	25600	1060	16900	27000	30100	24600	6810	25700	38400	48800	42000	42800	46400	44800	45600	Trimeric HA Binding: RLU [13]: 23600 RLU; Trimeric HA Binding: RLU [16]: 48800 RLU; Trimeric HA Binding: RLU [17]: 47500 RLU; Trimeric HA Binding: RLU [18]: 49300 RLU; Trimeric HA Binding: RLU [23]: 46800 RLU; Trimeric HA Binding: RLU [24]: 38200 RLU; Trimeric HA Binding: RLU [26]: 49800 RLU
